The values below come from US8728754B1, “Use of proteins isolated from Pseudomonas to control molluscs” (priority 2013, dated 2014).

The test system of this data set is mussels. Nature of the data set: Mussel bioassay in scintillation vials. The class given is in vivo. The procedure: Mussel bioassays were performed in twenty milliliter scintillation vials. Ten small mussels (approximately 1 cm long) were incubated in the mussel water (10 mL) for 24 hr first, then the mussel water (10 mL) was changed freshly before test cell lysis was added. Cell lysis or proteins (maximal 500 μL) was added into each vial. After 24 hr, the mussel water with cell lysis or proteins was changed with clean mussel water. Then, mussel water was changed every 24 hr with clean mussel water. Dead mussels were taken away every day and mussel mortality was calculated by number of dead mussel divided by the number of total mussels.

B1: dihydrolipoamide dehydrogenase (protein, UniProt P14218 2-478, looked up)
Dihydrolipoyl dehydrogenase: SQKFDVVVIGAGPGGYVAAIRAAQLGLKTACIEKYIGKEGKVALGGTCLNVGCIPSKALLDSSYKYHEAKEAFKVHGIEAKGVTIDVPAMVARKANIVKNLTGGIATLFKANGVTSFEGHGKLLANKQVEVTGLDGKTQVLEAENVIIASGSRPVEIPPAPLSDDIIVDSTGALEFQAVPKKLGVIGAGVIGLELGSVWARLGAEVTVLEALDKFLPAADEQIAKEALKVLTKQGLNIRLGARVTASEVKKKQVTVTFTDANGEQKETFDKLIVAVGRRPVTTDLLAADSGVTLDERGFIYVDDHCKTSVPGVFAIGDVVRGAMLAHKASEEGVMVAERIAGHKAQMNYDLIPSVIYTHPEIAWVGKTEQTLKAEGVEVNVGTFPFAASGRAMAANDTTGLVKVIADAKTDRVLGVHVIGPSAAELVQQGAIGMEFGTSAEDLGMMVFSHPTLSEALHEAALAVNGHAIHIANRKKR
notes: Molluscicidal protein isolated from Pseudomonas CL145A, identified as dihydrolipoamide dehydrogenase
Regarding B1, the “Mussel mortality at 7th day” value (5 ppm, 7th day) amounted to 50%. The “Activity in mussel bioassay of proteins and fractions dosed after gel analysis” value (in vivo) was “active”.
